The target in the assay is PCNA (Homo sapiens, UniProt P12004). In words: enzyme activity assay.

Broadly, the Kd is the constant that tells how readily two partners part at equilibrium. Low values mean higher affinity, high ones lower affinity.

Sequence of PCNA (P12004 whole entry): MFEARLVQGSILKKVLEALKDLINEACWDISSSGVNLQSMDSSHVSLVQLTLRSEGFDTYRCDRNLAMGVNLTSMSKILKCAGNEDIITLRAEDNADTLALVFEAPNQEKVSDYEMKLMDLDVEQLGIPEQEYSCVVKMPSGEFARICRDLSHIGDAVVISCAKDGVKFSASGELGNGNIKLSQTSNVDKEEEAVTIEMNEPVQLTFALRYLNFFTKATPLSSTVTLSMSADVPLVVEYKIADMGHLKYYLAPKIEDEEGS

B1: DNA polymerase delta core (protein)
chain 1: MDGKRRPGPGPGVPPKRARGGLWDDDDAPRPSQFEEDLALMEEMEAEHRLQEQEEEELQSVLEGVADGQVPPSAIDPRWLRPTPPALDPQTEPLIFQQLEIDHYVGPAQPVPGGPPPSRGSVPVLRAFGVTDEGFSVCCHIHGFAPYFYTPAPPGFGPEHMGDLQRELNLAISRDSRGGRELTGPAVLAVELCSRESMFGYHGHGPSPFLRITVALPRLVAPARRLLEQGIRVAGLGTPSFAPYEANVDFEIRFMVDTDIVGCNWLELPAGKYALRLKEKATQCQLEADVLWSDVVSHPPEGPWQRIAPLRVLSFDIECAGRKGIFPEPERDPVIQICSLGLRWGEPEPFLRLALTLRPCAPILGAKVQSYEKEEDLLQAWSTFIRIMDPDVITGYNIQNFDLPYLISRAQTLKVQTFPFLGRVAGLCSNIRDSSFQSKQTGRRDTKVVSMVGRVQMDMLQVLLREYKLRSYTLNAVSFHFLGEQKEDVQHSIITDLQNGNDQTRRRLAVYCLKDAYLPLRLLERLMVLVNAVEMARVTGVPLSYLLSRGQQVKVVSQLLRQAMHEGLLMPVVKSEGGEDYTGATVIEPLKGYYDVPIATLDFSSLYPSIMMAHNLCYTTLLRPGTAQKLGLTEDQFIRTPTGDEFVKTSVRKGLLPQILENLLSARKRAKAELAKETDPLRRQVLDGRQLALKVSANSVYGFTGAQVGKLPCLEISQSVTGFGRQMIEKTKQLVESKYTVENGYSTSAKVVYGDTDSVMCRFGVSSVAEAMALGREAADWVSGHFPSPIRLEFEKVYFPYLLISKKRYAGLLFSSRPDAHDRMDCKGLEAVRRDNCPLVANLVTASLRRLLIDRDPEGAVAHAQDVISDLLCNRIDISQLVITKELTRAASDYAGKQAHVELAERMRKRDPGSAPSLGDRVPYVIISAAKGVAAYMKSEDPLFVLEHSLPIDTQYYLEQQLAKPLLRIFEPILGEGRAEAVLLRGDHTRCKTVLTGKVGGLLAFAKRRNCCIGCRTVLSHQGAVCEFCQPRESELYQKEVSHLNALEERFSRLWTQCQRCQGSLHEDVICTSRDCPIFYMRKKVRKDLEDQEQLLRRFGPPGPEAW
chain 2: not shown
As for B1, the affinity, expressed as Kd, was 73 nM.

B2: DNA polymerase delta core+p12 (protein)
chain 1: MDGKRRPGPGPGVPPKRARGGLWDDDDAPRPSQFEEDLALMEEMEAEHRLQEQEEEELQSVLEGVADGQVPPSAIDPRWLRPTPPALDPQTEPLIFQQLEIDHYVGPAQPVPGGPPPSRGSVPVLRAFGVTDEGFSVCCHIHGFAPYFYTPAPPGFGPEHMGDLQRELNLAISRDSRGGRELTGPAVLAVELCSRESMFGYHGHGPSPFLRITVALPRLVAPARRLLEQGIRVAGLGTPSFAPYEANVDFEIRFMVDTDIVGCNWLELPAGKYALRLKEKATQCQLEADVLWSDVVSHPPEGPWQRIAPLRVLSFDIECAGRKGIFPEPERDPVIQICSLGLRWGEPEPFLRLALTLRPCAPILGAKVQSYEKEEDLLQAWSTFIRIMDPDVITGYNIQNFDLPYLISRAQTLKVQTFPFLGRVAGLCSNIRDSSFQSKQTGRRDTKVVSMVGRVQMDMLQVLLREYKLRSYTLNAVSFHFLGEQKEDVQHSIITDLQNGNDQTRRRLAVYCLKDAYLPLRLLERLMVLVNAVEMARVTGVPLSYLLSRGQQVKVVSQLLRQAMHEGLLMPVVKSEGGEDYTGATVIEPLKGYYDVPIATLDFSSLYPSIMMAHNLCYTTLLRPGTAQKLGLTEDQFIRTPTGDEFVKTSVRKGLLPQILENLLSARKRAKAELAKETDPLRRQVLDGRQLALKVSANSVYGFTGAQVGKLPCLEISQSVTGFGRQMIEKTKQLVESKYTVENGYSTSAKVVYGDTDSVMCRFGVSSVAEAMALGREAADWVSGHFPSPIRLEFEKVYFPYLLISKKRYAGLLFSSRPDAHDRMDCKGLEAVRRDNCPLVANLVTASLRRLLIDRDPEGAVAHAQDVISDLLCNRIDISQLVITKELTRAASDYAGKQAHVELAERMRKRDPGSAPSLGDRVPYVIISAAKGVAAYMKSEDPLFVLEHSLPIDTQYYLEQQLAKPLLRIFEPILGEGRAEAVLLRGDHTRCKTVLTGKVGGLLAFAKRRNCCIGCRTVLSHQGAVCEFCQPRESELYQKEVSHLNALEERFSRLWTQCQRCQGSLHEDVICTSRDCPIFYMRKKVRKDLEDQEQLLRRFGPPGPEAW
chain 2: not shown
chain 3: MGRKRLITDSYPVVKRREGPAGHSKGELAPELGEEPQPRDEEEAELELLRQFDLAWQYGPCTGITRLQRWCRAKQMGLEPPPEVWQVLKTHPGDPRFQCSLWHLYPL
The molecule B2 returned a Kd of 8.7 nM.

(Values after article PMC3377666 (2012).)
